Reference: patent US20190300590A1 (PROTAGONIST THERAPEUTICS, published 2019)
Read-outs that look alike come from different tables or passages of the source. *1 amine or outer side, *2 acyl side, *3 side chain or, on linkers, in order; H or OH if unused. Bridges are numbered along the chain shown (N, C = ends). Primed or numbered codes have the meaning given here. [ ]: non-standard residue; d: D form. Phe(4-OMe)(3) = O-methyl-L-tyrosine (4-methoxy-L-phenylalanine), COc1ccc(C[C@H](N[*:1])C(=O)[*:2])cc1; Phe(4-OMe) = 4-methoxy-L-phenylalanine (O-methyl-L-tyrosine), COc1ccc(C[C@H](N[*:1])C(=O)[*:2])cc1; Phe(4-CONH2) = NC(=O)c1ccc(C[C@H](N)C(=O)O)cc1; 2Nal = N[C@@H](Cc1ccc2ccccc2c1)C(=O)O; AEF = NCCOc1ccc(C[C@H](N)C(=O)O)cc1; αMeL = CC(C)C[C@](C)(N)C(=O)O; αMeK = C[C@](N)(CCCCN)C(=O)O; Abu = CC[C@H](N)C(=O)O; Aib = CC(C)(N)C(=O)O

T1: Rat IL-23R_huFC (rat, UniProt F1LX96 39-369)
T1 sequence: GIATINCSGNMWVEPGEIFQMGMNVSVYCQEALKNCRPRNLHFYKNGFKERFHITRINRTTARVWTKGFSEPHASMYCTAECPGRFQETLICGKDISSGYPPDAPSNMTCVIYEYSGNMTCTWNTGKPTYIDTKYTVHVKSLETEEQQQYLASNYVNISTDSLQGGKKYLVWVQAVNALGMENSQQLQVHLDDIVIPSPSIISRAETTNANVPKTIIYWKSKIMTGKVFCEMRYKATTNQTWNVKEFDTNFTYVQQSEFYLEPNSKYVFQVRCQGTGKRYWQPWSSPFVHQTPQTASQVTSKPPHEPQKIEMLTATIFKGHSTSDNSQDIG

T2: IL-23R on human cells (IL-23R-expressing DB cells; human NK cells) (human, UniProt Q5VWK5 24-629)
T2 sequence (looked up): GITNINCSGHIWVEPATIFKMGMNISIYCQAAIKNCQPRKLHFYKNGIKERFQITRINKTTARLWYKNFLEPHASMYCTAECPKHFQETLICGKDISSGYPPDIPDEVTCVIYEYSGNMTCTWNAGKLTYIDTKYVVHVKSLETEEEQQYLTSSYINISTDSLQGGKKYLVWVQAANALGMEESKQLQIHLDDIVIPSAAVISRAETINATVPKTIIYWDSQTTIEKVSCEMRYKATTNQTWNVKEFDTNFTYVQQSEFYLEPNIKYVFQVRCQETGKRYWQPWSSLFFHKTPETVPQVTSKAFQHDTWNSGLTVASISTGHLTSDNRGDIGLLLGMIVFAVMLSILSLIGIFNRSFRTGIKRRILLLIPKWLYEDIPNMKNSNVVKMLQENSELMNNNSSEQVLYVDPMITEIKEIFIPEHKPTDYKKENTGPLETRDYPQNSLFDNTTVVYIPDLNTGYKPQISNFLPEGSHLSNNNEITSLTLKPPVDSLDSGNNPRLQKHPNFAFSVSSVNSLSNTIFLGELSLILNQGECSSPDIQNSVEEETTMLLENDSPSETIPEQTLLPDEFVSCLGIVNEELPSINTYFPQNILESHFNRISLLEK

T3: IL23R_huFC (human, UniProt Q5VWK5 24-353)
T3 sequence (looked up): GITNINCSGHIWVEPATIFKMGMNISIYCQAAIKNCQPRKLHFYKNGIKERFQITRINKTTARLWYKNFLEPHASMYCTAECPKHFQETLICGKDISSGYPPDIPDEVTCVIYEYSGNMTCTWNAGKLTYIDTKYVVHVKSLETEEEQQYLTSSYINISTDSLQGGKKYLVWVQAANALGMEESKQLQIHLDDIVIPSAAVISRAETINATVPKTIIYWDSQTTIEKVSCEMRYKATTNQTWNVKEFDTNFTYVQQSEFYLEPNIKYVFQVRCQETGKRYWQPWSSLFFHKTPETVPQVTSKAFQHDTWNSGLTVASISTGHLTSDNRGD


Legend:
Rat IL-23R_huFC [1] = target: T1, Rat IL-23R_huFC; assay: rat IL-23R competitive binding ELISA
[2] = target: T2, IL-23R on human cells …; assay: cell-based or functional assay
Rat IL-23R_huFC [3] = target: Rat IL-23R_huFC (rat); assay: rat ELISA vs IL-23
IL23R_huFC [4] = target: T3, IL23R_huFC; assay: human ELISA vs IL-23
IL23R_huFC [5] = target: T3, IL23R_huFC; assay: human ELISA vs IL-23; remark: listed apart in the source
Rat IL-23R_huFC [6] = target: Rat IL-23R_huFC (rat); assay: rat ELISA vs IL-23; remark: listed apart in the source

Binder | IC50 (Rat IL-23R_huFC [1]) | pStat3 HTRF IC50 [2] | IC50 (IL23R_huFC [5]) | also measured
XQTWQXFXKKNG (Ac; Pen-Pen disulfide; Phe(4-OMe); 2-Nal; α-MeLys; Lys(Ac); NH2) [Ac-[Pen]-QTWQ-[Pen]-[Phe(4-OMe)]-[2-Nal]-[α-MeLys]-[Lys(Ac)]-NG-NH2] | 25 to 100 nM |  |  | 
XQTWQXFXKKNN (Ac; Pen-Pen disulfide; Phe[4-(2-aminoethoxy)]; 2-Nal; α-MeLys; Lys(Ac); NH2) [Ac-[Pen]-QTWQ-[Pen]-[Phe[4-(2-aminoethoxy)]-[2-Nal]-[α-MeLys]-[Lys(Ac)]-NN-NH2] | 10 to 25 nM |  |  | 
XQTWQXFXVKNN (Ac; Pen-Pen disulfide; Phe(4-CONH2); 2-Nal; α-MeVal; Lys(Ac); NH2) [Ac-[Pen]-QTWQ-[Pen]-[Phe(4-CONH2)]-[2-Nal]-[α-MeVal]-[Lys(Ac)]-NN-NH2] | 10 to 25 nM |  |  | 
XQTWQXFXKKNN (Ac; Pen-Pen disulfide; Phe(4-CONH2); 2-Nal; α-MeLys; Lys(Ac); NH2) [Ac-[Pen]-QTWQ-[Pen]-[Phe(4-CONH2)]-[2-Nal]-[α-MeLys]-[Lys(Ac)]-NN-NH2] | 25 to 100 nM |  |  | 
XQTWQXFXKKNG (Ac; Pen-Pen disulfide; Phe[4-(2-aminoethoxy)]; 2-Nal; α-MeLys; Lys(Ac); NH2) [Ac-[Pen]-QTWQ-[Pen]-[Phe[4-(2-aminoethoxy)]-[2-Nal]-[α-MeLys]-[Lys(Ac)]-NG-NH2] | 25 to 100 nM |  |  | 
Ac-[2Nal][Abu]QTWQC[AEF][2Nal][αMeK]ENN-NH2 (thioether 2-7) [Ac-[2-Nal]-Cyclo-[[Abu]-QTWQC]-[Phe[4-(2-aminoethoxy)]]-[2-Nal]-[α-MeLys]-ENN-NH2] |  | < 10 nM |  | IC50 (Rat IL-23R_huFC [3]): 10 to 25 nM; IC50 (IL23R_huFC [4]): < 10 nM
Ac-[Abu]QTWQC[Phe(4-OMe)(3)][2Nal][αMeK]K(Ac)NG-NH2 (thioether 1-6) [Ac-Cyclo-[[Abu]-QTWQC]-[Phe(4-OMe)]-[2-Nal][α-MeLys]-[Lys(Ac)]-NG-NH2] |  |  |  | IC50 (Rat IL-23R_huFC [3]): 10 to 25 nM
XRTWQXYWRKFGXK (Ac; Pen-Pen disulfide; AEA; (D)-Lys; NH2) [Ac-[Pen]-RTWQ-[Pen]-YWRKFG-[AEA]-[(D)-Lys]-NH2] | 25 to 100 nM |  |  | 
XQTWQXFXKKNG (N-terminal succinic acid; Pen-Pen disulfide; Phe(4-OMe); 2-Nal; α-MeLys; Lys(Ac); NH2) [succinic acid-[Pen]-QTWQ[Pen]-[Phe(4-OMe)]-[2-Nal]-[α-MeLys]-[Lys(Ac)]-NG-NH2] | 25 to 100 nM |  |  | 
Ac-[Abu]QTWQC[Phe(4-OMe)][2Nal][Aib]K(Ac)NG-NH2 (thioether 1-6) [Ac-Cyclo-[[Abu]-QTWQC]-[Phe(4-OMe)]-[2-Nal]-[Aib]-[Lys(Ac)]-NG-NH2] |  | < 10 nM | 10 to 25 nM | IC50 (Rat IL-23R_huFC [6]): 25 to 100 nM
Ac-[Abu]QTWQC[AEF][2Nal][Aib]EK(Ac)G-NH2 (thioether 1-6) [Ac-Cyclo-[[Abu]-QTWQC]-[Phe[4-(2-aminoethoxy)]]-[2-Nal]-[Aib]-E-[Lys(Ac)]-G-NH2] |  | < 10 nM | 10 to 25 nM | 
XQTWQCFXXKNG (as bracketed in name; thioether cyclo) [Ac-Cyclo-[[Abu]-QTWQC]-[Phe(4-OMe)]-[2-Nal]-[α-MeOrn]-[Lys(Ac)]-NG-NH2] |  | < 10 nM | 10 to 25 nM | IC50 (Rat IL-23R_huFC [3]): 10 to 25 nM
Ac-[Abu]QTWQC[AEF][2Nal][Aib]K(Ac)QG-NH2 (thioether 1-6) [Ac-Cyclo-[[Abu]-QTWQC]-[Phe[4-(2-aminoethoxy)]]-[2-Nal]-[Aib]-[Lys(Ac)]-QG-NH2] |  | < 10 nM | 10 to 25 nM | 
XQTWQXFXKKNG (N-terminal 4-methylmorpholine-2,6-dione; Pen-Pen disulfide; Phe(4-OMe); 2-Nal; α-MeLys; Lys(Ac); NH2) [4-methylmorpholine-2,6-dione-[Pen]-QTWQ[Pen]-[Phe(4-OMe)]-[2-Nal]-[α-MeLys]-[Lys(Ac)]-NG-NH2] | 25 to 100 nM |  |  | 
XQTWQXFXKKNG (N-terminal 4-fluorophenylacetic acid; Pen-Pen disulfide; Phe(4-OMe); 2-Nal; α-MeLys; Lys(Ac); NH2) [4-fluorophenylacetic acid-[Pen]-QTWQ-[Pen]-[Phe(4-OMe)]-[2-Nal]-[α-MeLys]-[Lys(Ac)]-NG-NH2] | 100 to 1000 nM |  |  | 
Ac-[Abu]QTWQC[AEF]W[Aib]ENN-NH2 (thioether 1-6) [Ac-Cyclo-[[Abu]-QTWQC]-[Phe[4-(2-aminoethoxy)]]-W-[Aib]-ENN-NH2] |  | < 10 nM | 10 to 25 nM | 
Ac-[Abu]QTWQC[Phe(4-CONH2)][2Nal][αMeK]K(Ac)NG-NH2 (thioether 1-6) [Ac-Cyclo-[[Abu]-QTWQC]-[Phe(4-CONH2)]-[2-Nal][α-MeLys]-[Lys(Ac)]-NG-NH2] |  |  |  | IC50 (Rat IL-23R_huFC [3]): 10 to 25 nM
XQTWQXFXKKNG (Ac; Pen-Pen disulfide; Phe(4-OMe); 1-Nal; α-MeLys; Lys(Ac); NH2) [Ac-[Pen]-QTWQ-[Pen]-[Phe(4-OMe)]-[1-Nal]-[α-MeLys]-[Lys(Ac)]-NG-NH2] | 100 to 1000 nM |  |  | 
Ac-[Abu]QTWQCYW[αMeL]ENG-NH2 (thioether 1-6) [Ac-Cyclo-[[Abu]-QTWQC]-YW-[α-MeLeu]-ENG-NH2] |  | < 10 nM | 10 to 25 nM | IC50 (Rat IL-23R_huFC [6]): 25 to 100 nM
